Reference: US20130011875A1

How the values were obtained:
[1] = biological target: TNFRII-Fc (tumor necrosis factor receptor 2 ectodomain fused to Fc region of IgG1); test: cell-based or functional assay
[2] = biological target: recombinant human Met-granulocyte colony-stimulating factor (rHuMetGCSF) (Homo sapiens) (UniProt P09919); test: cell-based or functional assay

TNFRII-Fc (tumor necrosis factor receptor 2 ectodomain fused to Fc region of IgG1), sequence (chain, as listed by the source limits assumed): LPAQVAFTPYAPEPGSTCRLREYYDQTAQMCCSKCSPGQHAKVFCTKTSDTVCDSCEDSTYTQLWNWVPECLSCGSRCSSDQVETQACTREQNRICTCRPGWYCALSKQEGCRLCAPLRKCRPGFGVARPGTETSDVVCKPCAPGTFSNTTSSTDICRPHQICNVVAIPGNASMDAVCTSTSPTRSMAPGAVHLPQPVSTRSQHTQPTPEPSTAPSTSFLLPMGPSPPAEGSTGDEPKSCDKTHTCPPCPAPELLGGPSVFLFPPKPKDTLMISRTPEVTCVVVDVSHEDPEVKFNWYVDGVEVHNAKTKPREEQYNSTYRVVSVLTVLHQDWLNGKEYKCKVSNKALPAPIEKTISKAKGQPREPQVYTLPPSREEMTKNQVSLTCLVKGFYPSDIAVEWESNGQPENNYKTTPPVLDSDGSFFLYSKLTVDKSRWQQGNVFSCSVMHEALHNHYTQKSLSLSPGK

- relative rhGCSF titer in fermentation supernatant (GCSF ELISA), vps10-1 deletion mutant yGLY9933 against parental strain yGLY8538 [2]: > 7 fold
Substance: Pichia pastoris vacuolar protein sorting receptor 10-1 (Vps10-1) (from UniProt C4R192 21-1542)
- relative TNFRII-Fc titer in deep-well plate supernatant (ELISA), vps10-1 deletion mutants yGLY9992 and yGLY9993 against parental wild-type strain yGLY8292 [1]: 10 fold
